Laboratory results from paper doi:10.1101/305789.
Where “and” joins values, the source holds several entries; their conditions need not be identical. Identical values can stand only once.

Biological target: Flag-tagged tomato PCNA (Proliferating cell nuclear antigen) (Solanum lycopersicum)
Assay: western blot of anti-Flag immuno-purified protein

Substance: Flag-tagged tomato PCNA (Proliferating cell nuclear antigen) (natural protein)
- stoichiometry N: 2 and 3
